We go through 56 variants from the RNAGym collection of RNA variant scans (doi:10.7554/elife.90254).

The labels stand for the following.
B1: LINE1-mini (parent)
chain: GGCAGAGCUCAACACAGCGUGGCAAAGUGGCUGUGGCUAGACUGCC

This series covers variants of B1. The series is described as follows: self-cleavage, relative activity (ratio to wild type); higher = more cleavage; in vitro, sequencing; the parent is a self-cleaving ribozyme.
In the case of GUCAGAGCUCAACACAGCGUGGCAAAGUGGCUGUGGCUAGACUGCC, the self-cleavage was 0.09.
For the variant GUCAGAGUUCAACACAGCGUGGCAAAGUGGCUGUGGCUAGACUGCC, the self-cleavage worked out at 0.1.
To GUCAGAGAUCAACACAGCGUGGCAAAGUGGCUGUGGCUAGACUGCC belongs 0.07.
As for GUCAGAGGUCAACACAGCGUGGCAAAGUGGCUGUGGCUAGACUGCC, the self-cleavage amounted to 0.04.
For the variant GUCAGAGCUCAACACAGCGUGGCUAAGUGGCUGUGGCUAGACUGCC, the self-cleavage is 0.19.
GUCAGAGCUCAACACAGCGUGGCGAAGUGGCUGUGGCUAGACUGCC: the self-cleavage was found to be 0.06.
For the variant GUCAGAGCUCAACACAGCGUGGCCAAGUGGCUGUGGCUAGACUGCC, the self-cleavage amounted to 0.07.
Take GUCAGAGCUCAACACAGCGUGGCAAAGUGGAUGUGGCUAGACUGCC: the self-cleavage turned out to be 0.04.
Next, GUCAGAGCUCAACACAGCGUGGCAAAGUGGUUGUGGCUAGACUGCC: 0.02; GUCAGAGCUCAACACAGCGUGGCAAAGUGGGUGUGGCUAGACUGCC: 0.03.
To GUCAGAGCUCAACACAGCGUGACAAAGUGGCUGUGGCUAGACUGCC belongs 0.11; to GUCAGAGCUCAACACAGCGUGCCAAAGUGGCUGUGGCUAGACUGCC, 0.12.
GUCAGAGCUCAACACAGCGUGUCAAAGUGGCUGUGGCUAGACUGCC: the self-cleavage worked out at 0.11.
On to GUCAGAGCUCCACACAGCGUGGCAAAGUGGCUGUGGCUAGACUGCC, for which the self-cleavage turned out to be 0.01.
Consider GUCAGAGCUCGACACAGCGUGGCAAAGUGGCUGUGGCUAGACUGCC, for which the self-cleavage was determined as 0.02.
With GUCAGAGCUCUACACAGCGUGGCAAAGUGGCUGUGGCUAGACUGCC, the self-cleavage came out at 0.03.
Regarding GUCAGAGCUCAAUACAGCGUGGCAAAGUGGCUGUGGCUAGACUGCC, the self-cleavage stood at 0.06.
As to GUCAGAGCUCAAGACAGCGUGGCAAAGUGGCUGUGGCUAGACUGCC, the self-cleavage is 0.02.
To GUCAGAGCUCAAAACAGCGUGGCAAAGUGGCUGUGGCUAGACUGCC belongs 0.06.
Consider GUCAGAGCUCAACCCAGCGUGGCAAAGUGGCUGUGGCUAGACUGCC, for which the self-cleavage was 0.01.
On to GUCAGAGCUCAACUCAGCGUGGCAAAGUGGCUGUGGCUAGACUGCC, for which the self-cleavage was found to be 0.04.
Turning to GUCAGAGCUCAACGCAGCGUGGCAAAGUGGCUGUGGCUAGACUGCC, the self-cleavage came to 0.08.
Consider GUCAGAGCUCAACACAGCGUGGCACAGUGGCUGUGGCUAGACUGCC, for which the self-cleavage worked out at 0.05.
Next, GUCAGAGCUCAACACAGCGUGGCAUAGUGGCUGUGGCUAGACUGCC: 0.08; GUCAGAGCUCAACACAGCGUGGCAGAGUGGCUGUGGCUAGACUGCC: 0.03; GUCAGAGCUCAACACAGCGUGGCAAAGUGGCUAUGGCUAGACUGCC: 0.03.
As to GUCAGAGCUCAACACAGCGUGGCAAAGUGGCUUUGGCUAGACUGCC, the self-cleavage was 0.04.
Next, GUCAGAGCUCAACACAGCGUGGCAAAGUGGCUCUGGCUAGACUGCC: 0.02; GUCAGAGCUCAACACAGCGUGGCAACGUGGCUGUGGCUAGACUGCC: 0.09.
Consider GUCAGAGCUCAACACAGCGUGGCAAGGUGGCUGUGGCUAGACUGCC, for which the self-cleavage was found to be 0.13.
Turning to GUCAGAGCUCAACACAGCGUGGCAAUGUGGCUGUGGCUAGACUGCC, the self-cleavage is 0.11.
On to GCCAGAGCUCAACACAGCGUGGCAAAGUGGCUGUGGCUAGACCGCC, for which the self-cleavage turned out to be 0.15.
To GCCAGAGCUCAACACAGCGUGGCAAAGUGGCUGUGGCUAGACGGCC belongs 0.04; to GUCAGAGCUCAACACAGCGUGGCAAAGUAGCUGUGGCUAGACUGCC, 0.09.
For GUCAGAGCUCAACACAGCGUGGCAAAGUCGCUGUGGCUAGACUGCC, the self-cleavage amounted to 0.04.
With GUCAGAGCUCAACACAGCGUGGCAAAGUUGCUGUGGCUAGACUGCC, the self-cleavage amounted to 0.11.
To GUCAGAACUCAACACAGCGUGGCAAAGUGGCUGUGGCUAGACUGCC belongs 0.07.
In the case of GUCAGACCUCAACACAGCGUGGCAAAGUGGCUGUGGCUAGACUGCC, the self-cleavage came to 0.04.
To GUCAGAUCUCAACACAGCGUGGCAAAGUGGCUGUGGCUAGACUGCC belongs 0.05; to GUCAGAGCUCAACACAGUGUGGCAAAGUGGCUGUGGCUAGACUGCC, 0.05.
Consider GUCAGAGCUCAACACAGGGUGGCAAAGUGGCUGUGGCUAGACUGCC, for which the self-cleavage was found to be 0.03.
Turning to GUCAGAGCUCAACACAGAGUGGCAAAGUGGCUGUGGCUAGACUGCC, the self-cleavage came to 0.03.
For GUCAGAGCUCAACACAGCGUGGCAAAGUGGCUGUGGCUUGACUGCC, the self-cleavage turned out to be 0.04.
GUCAGAGCUCAACACAGCGUGGCAAAGUGGCUGUGGCUGGACUGCC: the self-cleavage turned out to be 0.04.
Next, GUCAGAGCUCAACACAGCGUGGCAAAGUGGCUGUGGCUCGACUGCC: 0.03.
As for GUCAGAGCUCAACACAGCGUAGCAAAGUGGCUGUGGCUAGACUGCC, the self-cleavage was 0.25.
Consider GUCAGAGCUCAACACAGCGUUGCAAAGUGGCUGUGGCUAGACUGCC, for which the self-cleavage was 0.14.
Regarding GUCAGAGCUCAACACAGCGUCGCAAAGUGGCUGUGGCUAGACUGCC, the self-cleavage came to 0.09.
Take GUCAGAGCUCAACACAGCUUGGCAAAGUGGCUGUGGCUAGACUGCC: the self-cleavage is 0.05.
As to GUCAGAGCUCAACACAGCAUGGCAAAGUGGCUGUGGCUAGACUGCC, the self-cleavage was found to be 0.08.
Regarding GUCAGAGCUCAACACAGCCUGGCAAAGUGGCUGUGGCUAGACUGCC, the self-cleavage amounted to 0.03.
Regarding GUCAGAGCUCAACACAGCGUGGCAAAGUGGCUGUGGCUAGACUACC, the self-cleavage is 0.08.
To GUCAGAGCUCAACACAGCGUGGCAAAGUGGCUGUGGCUAGGCUGCC belongs 0.09.
As for GUCAGAGCUCAACACAGCGUGGCAAAGUGGCUGUGGCUAGCCUGCC, the self-cleavage was 0.02.
Next, GUCAGAGCUCAACACAGCGUGGCAAAGUGGCUGUGGCUAGUCUGCC: 0.08; GUCAGAGCUAAACACAGCGUGGCAAAGUGGCUGUGGCUAGACUGCC: 0.02.
